Test: yeast display, Sf9 membrane polyspecificity reagent, FACS + sequencing; frameworks hold sequencing errors
How it was run: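 Sorting gates, low and high (top ~1%), were placed on anti-HA fluorescence to track expression and on streptavidin fluorescence to track reagent binding. A clone's polyreactivity label is taken from the gate it came out of. The reagent was 10% biotinylated, detergent-solubilized Sf9 membrane, applied for 1 hour at 4 °C to galactose-induced yeast display cells.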

Sequence	polyreactivity (PSR sort gate)
QVQLVESGGGLVQAGGSLRLSCAASGYTFWDYTMGWYRQAPGKEREFVAAINWSGGSTYYADSVKGRFTISRDNAKNTVYLQMNSLKPEDTAVYYCAARRGGRRGYDYWGQGTQVTVSS	high polyreactivity
QVQLVESGGGLVQAGGSLRLSCAASGYTFWWYAMGWSRQAPGKERELVAAISIGGSTKYADSVKGRFTISRDNAKNTVYLQMNSLKPEDTAVYYCAAEVSYHYVPYGYWGQGTQVTVSS	low polyreactivity
QVQLVESGGGLVQAGGSLRLSCAASGYTFYFYAMGWSRQAPGKEREFVAAIRSSGGRTYYADSVKGRFTISRDNAKNNVYLQMNSLKPEDTAVYYCAAAGYYYSVDGAGPRYDYWGQGTQVTVSS	low polyreactivity
QVQLVESGGGLVQAGGSLRLSCAASGYTFYINTMGWYRQAPGKEREFVAAITWSGGSTYYADSVKGRFTISRDNAKNTVYLQMNSLIPEDTAVYYCAADLYVGDMDYWGQGTQVTVSS	low polyreactivity
QVQLVESGGGLVQAGGSLRLSCAASGYTFYLYAMGWYRQAPGKERELVAAISTNGGRTYYADSVKGRFTISRDNAKNTVYLQLNSLKPEDTAVYYCAVRSRGTAPQYYYWGQGTQVTVSS	high polyreactivity
QVQLVESGGGLVQAGGSLRLSCAASGYTFYRYAMGWYRQAPGKERELVASITRSGGSTYYADSVKGRFTISRDNAKNTVYLQMNSLKPEDTAVYYCAAEYEFGHSSTPMDYWGQGTQVTVSS	high polyreactivity
QVQLVESGGGLVQAGGSLRLSCAASGYTFYSNAMGWYRQAPGKERELVAVISRGGGTYYADSVKGRFTISRDNAKNTVYLQMNSLKPEDTAVYYCAASTFTYHWRYDYWGQGTEVTVSS	low polyreactivity
QVQLVESGGGLVQAGGSLRLSCAASGYTFYVYAMGWYRQAPGKERELVAAIRSGGTTYYADSVKGRFTISRDNAKYTVYLQMNSLKPEDTAVYYCAADVQDRYHRAWYDYWGQGTQVTVSS	low polyreactivity
QVQLVESGGGLVQAGGSLRLSCAASGYTFYYYAMGWYRQAPGKERELVAAISWSGGSTYYADSVKGRVTISRDNAKNTVYLQMNSLKPEDTAVYYCAAGVDLYYDLYDYEYWGQGTQVTVSS	low polyreactivity
QVQLVESGGGLVQAGGSLRLSCAASGYTFYYYAMGWYRQAPGKERELVAGISGRGGSTYYADSVKGRFTISRDNAKNTVYLQMNSLKPEDTAVYYCAATSPRAGTRRYEYWGQGTQVTVSS	high polyreactivity
QVQLVESGGGLVQAGGSLRLSCAASGYTIGIYAMGWYRQAPGKERELVAAISFSDGTTYYADSVKGRFTISRDNAKNTVYLQMNSLKPEDTAVYYCAAAAGGTVVGEGDYWGQGTQVTVSS	low polyreactivity
QVQLVESGGGLVQAGGSLRLSCAASGYTILIYAKGWYRQAPGKERELVASISRSGGSTYYADSVKGRFTISRDNAKNTVYLQMNSLKTEDTAVYYCNADFGYDSVVEYDYWGQGTQVTVSS	low polyreactivity
QVQLVESGGGLVQAGGSLRLSCAASGYTILTNAMGWYRQAPGKERELVADITSSGGSTYYADSVKGRFTISRDNAKNTVYLQMNSLKPEDTAVYYCAKRWYRNRYGYWGQGTQVTVSS	high polyreactivity
QVQLVESGGGLVQAGGSLRLSCAASGYTIYQYAMGWYRQAPRKERELVAAISSDASTSYADSVKGRFTISRDNAKNTVYLQMNSLKPEDTAVYYCAADPGPYYDWGYDYWGQGTQVTVSS	low polyreactivity
QVQLVESGGGLVQAGGSLRLSCAASGYTIYYYAMGWYRQAPGKERELVAVITSRGTRTYYADSVQGRFTISRDNAKNTVYLQMNSLKPEDTAVYYCNKARGVAYDWGQGTQVTVSS	high polyreactivity
QVQLVESGGGLVQAGGSLRLSCAASGYTLGDYAMGWYRQAPGKERELVAAISSGGITSYADSVKGRFTISRDNAKNTVYLQMNSLKPEDTAVYYCNAAIVGFTRAYQYDYWGQGTQVTVSS	high polyreactivity
QVQLVESGGGLVQAGGSLRLSCAASGYTLGDYSMGWYRQAPGKERELVAVITRNGGRTYYSDSVKGRFTISRDKAKNTVYLQMNSLKPEDTAVYYCNRDTSIRHYNYWGQGTQVTVSS	high polyreactivity
QVQLVESGGGLVQAGGSLRLSCAASGYTLGYYAMGWYRQAPGKERELVASITERGGSTYYADSVKGRFTISRDNAKNTVYLQMNSLKPEDTAVYYCAADWDPSWWLFPTSSYDYWGQGTQVTVSS	low polyreactivity
QVQLVESGGGLVQAGGSLRLSCAASGYTLRIYAMGWYRQAPGKEREMVAAISRSGGRTFYADSVKGRFTISRDNAKNTVYLQMNSLKPEDTAVYYCAADPRSYDTGRMDYWGQGTQVTVSS	high polyreactivity
QVQLVESGGGLVQAGGSLRLSCAASGYTLYQYAMGWYRPAPVKERELVAAISRRGGSTYYADSVKGRFTISRDNAKNTVYLLMNSLKPEDTAVYYCNNANLYRFWEMDYWGQGTQVSVSS	high polyreactivity
QVQLVESGGGLVQAGGSLRLSCAASRFIFRRNAMGWYRQAPGKERELVAAITLSGGSTYYADSVKGRFTISRDNAKNTVYLQMKSLKPEDTAFYFCAARPGYYTRYDYWGQGTQVTVSS	low polyreactivity

Sequence	polyreactivity (PSR sort gate)
QVQLVESGGGLVQAGGSLRLSCAASRFIFSVYTMGSYIQAPGKERELVAAISSGPSTTYADSVKGRFTISRDNAKNTVYLQMNSLKPEDTAVYYCARRDGTTQALFGYDYWGLGTQVTVSS	low polyreactivity
QVQLVESGGGLVQAGGSLRLSCAASRFTIIPYDMGRYRQAPGKERELVATISRGGSTNYADSVKGRFTISRENAKNTVYLQMNSLKPEDTAVYYCAAEYKVVFSQPYCEYDYWGQGTQVTVSS	low polyreactivity
QVQLVESGGGLVQAGGSLRLSCAASRLTFSYYAMGWYRQAPGKERELVAAISERGGSTYYADSVKGRFTISRDNAKNTVYLQMNSLKPEDTAVYYCAADFVYGTRDDSWGQGTQVTVSS	high polyreactivity
QVQLVESGGGLVQAGGSLRLSCAASRNIFDTYVMGWYRQAPGKETELVAANTSDGGTYYADSVKGRFTISRDNAKNTVFFQMNSLKPVDTAVYSCAADTYYYPIHDYWGQGTQVTVSS	low polyreactivity
QVQLVESGGGLVQAGGSLRLSCAASRRIFSQYAMGWSRQAPGKERELVAAITWRGASTYYADSVKGRFTISRDNAKNTVYLQMNSLKPEDTAVYYCAAGYPPGRYYRVRWVGYWGQGTQVTVSS	high polyreactivity
QVQLVESGGGLVQAGGSLRLSCAASRRTFKPYAMGWYRQAPGKERELVARISGSGGSTYYADSVKGRFTISRDNAKNTVYLQMNSLKPEDTAVYYCATTPYYWFDYWGQGTQVTVSS	low polyreactivity
QVQLVESGGGLVQAGGSLRLSCAASRRTYWYNAMGWYRQSPGKERELVAAISRAGRTYYADSVKGRFTISRDNAKNTVYIQMNSLKPEDTAVYYCNVVLFGDSGNLQYYYWGQGTQVTVSS	high polyreactivity
QVQLVESGGGLVQAGGSLRLSCAASRSIFSWYAMGWYRTAPGTERELVAAITWTGGSTYYADSVKGRFTISRDNAKNTVYLQMKSLKTEDTAVYYCAARRVVYRKYGDRGRWYNYWGQGTQVTVSS	high polyreactivity
QVQLVESGGGLVQAGGSLRLSCAASRSIFSYNAMGWYRQAPGKGREFVAAITSSGTRKYYADSVQGRFTISRDNAMNTVYLQLNSLKPEDTAVYYCAADLRYDYWGQGTQVPVSS	high polyreactivity
QVQLVESGGGLVQAGGSLRLSCAASRSIFYINAMGWYRQEPGKEMELVAAITSDGSTYYADSVKGRFTISRDNAKNTVYLQMNSLKPEDTAVYYCAADLTSDQYLYYWYWFYSWGQGTQVTVSS	low polyreactivity
QVQLVESGGGLVQAGGSLRLSCAASRSNFQFYAMGWYRQAPGTERELVAVISTRGGSTYYADSVKGRFTISRDKAKNTVYLQMYSLKPEDTAVYYCAAKSVYRMGYWGQGTQVTVSS	high polyreactivity
QVQLVESGGGLVQAGGSLRLSCAASRSTFPFYAMGWYRQAPGKERELVAAITSGGSTYADSVKGRFTISRDNAKNTVYLQMNSLKPEDTAVYYCAASWPRWWRFGYWGQGTQVTVSS	low polyreactivity
QVQLVESGGGLVQAGGSLRLSCAASRSTFTGNAMGWYRQAPGNERELVASINGSSGSTYYADSVKGRFTISRDNAKNTVYLQMNSLKPEDTAVYYCAKDSFLHFPRVGWVGLEYWGQGTQVTVSS	low polyreactivity
QVQLVESGGGLVQAGGSLRLSCAASVFIFDRYAMGWYRQAPGKERELVAAISSGGSTYYADSVKGRFTISRDNAKNTVYLQMNSLKPEDTAVYYCAAESWLNFIYEYDYWGQGTQVTVSS	low polyreactivity
QVQLVESGGGLVQAGGSLRLSCAASVFTFQYYAMGWYRQAPGKERELVAAISRRGGRTDYADSVKGRFTISRDNAKNTVYLQMNSLKPEDTAVYYCARDPGAFEYWGQGTQVTLSS	high polyreactivity
QVQLVESGGGLVQAGGSLRLSCAASVIIFNLYAMGWYRQAPGKERELVAAISWSGGSTYYADSVKGRFTISRDNAKNTVYLQMNSLKPEDPAVYYCATSFLYPYFDEDDYWGQGTQVTVSS	high polyreactivity
QVQLVESGGGLVQAGGSLRLSCAASVITFWIYAMGWYRQAPGKERELVAAITGRGGSTYYADSVKGRFTISRDNAKNTVYLQLNSLKPEDTAFYYCAAESWYSTYDYWGQGTQVTVTS	high polyreactivity
QVQLVESGGGLVQAGGSLRLSCAASVLIFDGYAMGWYRQAPGKEREFVADIDFGGGSTYYADSVKGRFTISRDNAKNTVYLQMNSLKPEDTAVYYCNAVWDDYGFYSPYVVVEYDYWGQGTQVTVSS	high polyreactivity
QVQLVESGGGLVQAGGSLRLSCAASVLIFHTYGMGWYRQAPGKERELVADITDGGSTYYADSVKGRFTISRDNAKNTVYLQMNSLKPEDTAVYYCAADERGVFLTYWYFWYDYWGQGTQETVSS	low polyreactivity
QVQLVESGGGLVQAGGSLRLSCAASVLIIWLYTMGWYRQAPGKERELVAAIDWSGGSTYYADSVKGRFTMSRDIAKNTVYLQMNRLKPEDTAVYYCAADPEPSYRFDYGGQGTQVTVSS	low polyreactivity

From the nanobody polyreactivity screen of Harvey et al. (2022)
